Source: publication PMC7534208

Target: transportin 1 (TNPO1) (human (endogenous in HeLa)) (UniProt Q92973)
Assay: proximity ligation

Chain of UniProt Q92973 (Q92973 whole entry): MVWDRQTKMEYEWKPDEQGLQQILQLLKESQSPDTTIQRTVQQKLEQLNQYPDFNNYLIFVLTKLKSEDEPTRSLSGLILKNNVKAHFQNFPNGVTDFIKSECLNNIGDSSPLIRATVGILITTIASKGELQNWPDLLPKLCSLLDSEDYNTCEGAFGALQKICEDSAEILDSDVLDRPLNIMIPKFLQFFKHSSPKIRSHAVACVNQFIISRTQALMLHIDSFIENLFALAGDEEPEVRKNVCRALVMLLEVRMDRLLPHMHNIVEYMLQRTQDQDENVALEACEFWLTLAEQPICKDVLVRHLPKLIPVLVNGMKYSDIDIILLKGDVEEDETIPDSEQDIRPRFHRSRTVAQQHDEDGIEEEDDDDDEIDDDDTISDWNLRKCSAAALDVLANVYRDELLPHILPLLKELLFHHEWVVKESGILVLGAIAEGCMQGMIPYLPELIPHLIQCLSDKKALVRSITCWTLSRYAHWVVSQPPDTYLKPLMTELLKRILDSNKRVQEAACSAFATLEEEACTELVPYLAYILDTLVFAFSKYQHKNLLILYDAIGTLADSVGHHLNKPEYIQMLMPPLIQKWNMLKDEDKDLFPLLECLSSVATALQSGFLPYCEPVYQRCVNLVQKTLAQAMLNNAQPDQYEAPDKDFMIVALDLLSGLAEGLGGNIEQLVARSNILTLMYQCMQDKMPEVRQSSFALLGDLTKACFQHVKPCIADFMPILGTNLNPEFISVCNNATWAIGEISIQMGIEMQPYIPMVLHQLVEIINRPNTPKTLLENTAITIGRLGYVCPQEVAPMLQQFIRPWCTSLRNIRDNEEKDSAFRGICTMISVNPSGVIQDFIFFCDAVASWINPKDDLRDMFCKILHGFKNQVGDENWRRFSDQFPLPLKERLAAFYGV

In the case of “HIV-1 Rev (regulator of expression of virion proteins), HA-tagged (from UniProt P04618 1-116) (natural protein)”, the PLA puncta per cell (puncta per cell) is reported as 26.
